Measured values from US20040072152A1.
Values joined by “and” are separate entries in the source; they are usually repeats but may differ in a detail not shown here. Identical values can stand only once.

Assays:
Conditions in all cases: scale: ratio of % tetramer-binding CD8alpha-high cells, bound/unbound fraction
[1] = target: E-selectin expressed on CHO-E cells (UniProt P16581); assay: un-manipulated PBMC, one hour rotary co-incubation with CHO-E monolayer, flow cytometry with tetramer B7-RPR
[2] = target: E-selectin expressed on CHO-E cells (UniProt P16581); assay: peptide-stimulated PBMC, one hour rotary co-incubation with CHO-E monolayer, flow cytometry with tetramer B7-APA
[3] = target: E-selectin expressed on CHO-E cells (UniProt P16581); assay: peptide-stimulated PBMC, one hour rotary co-incubation with CHO-E monolayer, flow cytometry with tetramer B7-RPR

Substance: CLA-associated E-selectin ligand on HSV-2-specific CD8+ T-cells
- CHO-E-selectin enrichment [1]: 13.2 and 10.1 and 5.6
- CHO-E-selectin enrichment [2]: 8.3
- CHO-E-selectin enrichment [3]: 9.5
